Test results published in US8586570B2, “Sox-based kinase sensor” (Massachusetts Institute of Technology, priority 2006, dated 2013).

Legend:
Test in all cases: Cross-reactivity of PKCα-S10 with PKC isozymes
Assay type in all cases: biochemical
Conditions in all cases: peptide 1 μM, isozyme 2 ng
[1] = biological target: PKCβII (Homo sapiens, UniProt P05771)
Protocol: (§1) With the kinetic parameters at hand it is possible to test the cross-reactivity of PKCα-S10 with PKC isozymes. In 12 separate reactions PKCα-S10 (1 μM) is subjected to phosphorylation with PKCα, PKCβI, PKCβII, PKCγ, PKCδ, PKCε, PKCζ, PKCη, PKCθ, PKCι, PKCμ and PKCν (2 ng).

[2] = biological target: PKCγ (Homo sapiens, UniProt P05129)
Protocol: as §1

[3] = biological target: T1, PKCε (Homo sapiens, UniProt Q02156)
T1 sequence (Q02156 1-737): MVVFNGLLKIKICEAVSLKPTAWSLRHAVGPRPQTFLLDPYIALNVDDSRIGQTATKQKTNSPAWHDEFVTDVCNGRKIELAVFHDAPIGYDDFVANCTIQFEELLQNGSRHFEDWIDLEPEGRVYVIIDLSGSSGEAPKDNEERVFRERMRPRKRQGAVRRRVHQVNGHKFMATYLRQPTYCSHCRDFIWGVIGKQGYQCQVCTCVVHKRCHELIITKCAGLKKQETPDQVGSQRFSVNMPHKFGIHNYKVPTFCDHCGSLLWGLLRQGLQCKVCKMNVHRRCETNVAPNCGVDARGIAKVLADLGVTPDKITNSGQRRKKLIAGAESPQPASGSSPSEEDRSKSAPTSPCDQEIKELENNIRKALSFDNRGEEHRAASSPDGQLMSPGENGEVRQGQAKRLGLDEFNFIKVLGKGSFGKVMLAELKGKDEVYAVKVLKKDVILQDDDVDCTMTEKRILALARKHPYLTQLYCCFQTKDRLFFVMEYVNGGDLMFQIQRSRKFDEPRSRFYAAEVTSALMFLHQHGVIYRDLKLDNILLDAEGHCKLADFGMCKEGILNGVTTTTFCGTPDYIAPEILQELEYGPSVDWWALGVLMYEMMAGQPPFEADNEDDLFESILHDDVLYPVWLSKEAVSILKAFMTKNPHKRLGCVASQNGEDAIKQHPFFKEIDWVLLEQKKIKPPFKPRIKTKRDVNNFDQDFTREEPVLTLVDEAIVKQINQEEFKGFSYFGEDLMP
Protocol: as §1

[4] = biological target: T2, PKCζ (Homo sapiens, UniProt Q05513)
T2 sequence (Q05513 1-592): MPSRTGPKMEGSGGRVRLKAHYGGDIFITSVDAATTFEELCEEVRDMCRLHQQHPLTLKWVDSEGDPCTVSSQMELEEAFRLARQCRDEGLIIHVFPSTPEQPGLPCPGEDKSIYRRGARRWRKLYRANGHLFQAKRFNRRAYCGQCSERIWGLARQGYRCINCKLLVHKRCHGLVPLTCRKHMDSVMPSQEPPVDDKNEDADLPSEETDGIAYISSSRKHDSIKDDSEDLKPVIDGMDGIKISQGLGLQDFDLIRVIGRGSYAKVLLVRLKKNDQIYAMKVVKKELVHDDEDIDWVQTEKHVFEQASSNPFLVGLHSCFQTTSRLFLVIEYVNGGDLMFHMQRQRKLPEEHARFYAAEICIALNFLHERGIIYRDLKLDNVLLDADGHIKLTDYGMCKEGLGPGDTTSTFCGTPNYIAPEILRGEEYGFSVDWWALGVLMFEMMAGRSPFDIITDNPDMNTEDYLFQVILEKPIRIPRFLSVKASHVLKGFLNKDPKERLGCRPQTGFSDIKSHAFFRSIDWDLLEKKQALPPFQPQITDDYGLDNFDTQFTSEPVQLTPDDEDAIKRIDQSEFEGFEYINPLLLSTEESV
Protocol: as §1

[5] = biological target: PKCθ (Homo sapiens, UniProt Q04759)
PKCθ, sequence (Q04759 whole entry): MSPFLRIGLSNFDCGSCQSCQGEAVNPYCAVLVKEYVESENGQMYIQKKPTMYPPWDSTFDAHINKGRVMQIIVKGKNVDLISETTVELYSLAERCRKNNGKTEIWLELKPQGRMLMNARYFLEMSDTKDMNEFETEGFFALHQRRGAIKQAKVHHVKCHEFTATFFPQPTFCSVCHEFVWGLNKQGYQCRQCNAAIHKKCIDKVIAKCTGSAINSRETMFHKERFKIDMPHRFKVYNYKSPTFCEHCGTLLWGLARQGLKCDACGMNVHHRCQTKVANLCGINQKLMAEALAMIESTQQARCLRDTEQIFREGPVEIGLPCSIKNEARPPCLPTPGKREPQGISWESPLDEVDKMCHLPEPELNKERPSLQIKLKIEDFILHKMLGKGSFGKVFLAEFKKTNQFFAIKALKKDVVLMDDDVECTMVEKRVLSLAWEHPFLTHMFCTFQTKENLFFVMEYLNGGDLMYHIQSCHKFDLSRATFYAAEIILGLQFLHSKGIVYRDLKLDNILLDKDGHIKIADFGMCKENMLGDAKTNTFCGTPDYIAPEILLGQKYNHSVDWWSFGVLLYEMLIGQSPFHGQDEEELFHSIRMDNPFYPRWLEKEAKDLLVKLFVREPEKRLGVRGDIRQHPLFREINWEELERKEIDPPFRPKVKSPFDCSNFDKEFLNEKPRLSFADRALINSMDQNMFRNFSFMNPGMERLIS
Protocol: as §1

[6] = biological target: T3, PKCμ (Homo sapiens, UniProt Q15139)
T3 sequence (Q15139 1-912): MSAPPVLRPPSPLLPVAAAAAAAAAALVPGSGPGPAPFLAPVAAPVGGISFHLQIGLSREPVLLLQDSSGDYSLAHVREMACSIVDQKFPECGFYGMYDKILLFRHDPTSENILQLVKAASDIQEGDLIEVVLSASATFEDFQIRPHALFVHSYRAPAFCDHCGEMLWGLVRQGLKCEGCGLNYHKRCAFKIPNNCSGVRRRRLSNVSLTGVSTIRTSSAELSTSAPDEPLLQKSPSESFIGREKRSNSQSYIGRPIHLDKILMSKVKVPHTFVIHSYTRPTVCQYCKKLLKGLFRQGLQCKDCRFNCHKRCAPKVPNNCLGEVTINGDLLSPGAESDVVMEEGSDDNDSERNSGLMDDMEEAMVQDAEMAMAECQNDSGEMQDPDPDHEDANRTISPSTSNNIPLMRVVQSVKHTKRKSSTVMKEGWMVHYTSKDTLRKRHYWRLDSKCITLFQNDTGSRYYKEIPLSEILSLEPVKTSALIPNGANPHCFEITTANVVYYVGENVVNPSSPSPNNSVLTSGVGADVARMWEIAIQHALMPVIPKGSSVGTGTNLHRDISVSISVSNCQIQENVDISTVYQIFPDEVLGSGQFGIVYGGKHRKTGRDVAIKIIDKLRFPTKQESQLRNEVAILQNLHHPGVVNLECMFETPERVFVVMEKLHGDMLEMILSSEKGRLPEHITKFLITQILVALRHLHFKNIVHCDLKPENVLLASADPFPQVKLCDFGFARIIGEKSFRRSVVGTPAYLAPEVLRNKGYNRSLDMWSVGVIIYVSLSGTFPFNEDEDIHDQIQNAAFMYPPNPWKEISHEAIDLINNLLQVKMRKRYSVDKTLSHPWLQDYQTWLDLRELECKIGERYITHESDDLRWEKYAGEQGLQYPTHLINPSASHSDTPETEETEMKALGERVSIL
Protocol: as §1

PKCβII, sequence (P05771 1-673 isoform P05771-2): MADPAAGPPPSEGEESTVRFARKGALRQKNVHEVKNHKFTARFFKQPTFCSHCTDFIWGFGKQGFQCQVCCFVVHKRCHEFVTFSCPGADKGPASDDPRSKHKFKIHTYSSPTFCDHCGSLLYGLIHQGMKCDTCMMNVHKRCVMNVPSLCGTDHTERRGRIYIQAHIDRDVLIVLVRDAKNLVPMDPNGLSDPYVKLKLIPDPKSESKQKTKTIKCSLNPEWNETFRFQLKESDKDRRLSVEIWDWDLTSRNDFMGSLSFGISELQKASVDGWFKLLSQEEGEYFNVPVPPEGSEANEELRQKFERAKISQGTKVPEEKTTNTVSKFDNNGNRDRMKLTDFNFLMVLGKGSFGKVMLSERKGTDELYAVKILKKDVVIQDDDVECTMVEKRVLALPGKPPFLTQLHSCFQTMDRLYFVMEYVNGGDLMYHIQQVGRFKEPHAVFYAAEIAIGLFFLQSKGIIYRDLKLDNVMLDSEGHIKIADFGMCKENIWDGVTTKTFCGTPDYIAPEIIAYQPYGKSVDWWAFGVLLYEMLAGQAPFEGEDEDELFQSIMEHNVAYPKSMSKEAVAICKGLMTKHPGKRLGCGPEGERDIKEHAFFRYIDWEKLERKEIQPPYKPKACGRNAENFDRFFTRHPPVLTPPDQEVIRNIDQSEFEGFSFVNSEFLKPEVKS

activity of isozyme on peptide compared with PKCα [1]: comparable activities to that of PKCα
activity of isozyme on peptide compared with PKCα [2]: comparable activities to that of PKCα
activity of isozyme on peptide [3]: very little activity
activity of isozyme on peptide [4]: very little activity
activity of isozyme on peptide compared with PKCα [5]: slightly more active than PKCα
activity of isozyme on peptide [6]: no activity
Substance: Ac-RRR-C(Sox)-ASFRRKA-CONH2 [PKCα-S10(P10), Sox chemosensor with extended recognition domain for PKCα]
